In IntAct's records for PubMed 31515488:

B1: Ligand of Numb protein X 2 (Homo sapiens), Q8N448 (parent)
chain: MGTTSDEMVSVEQTSSSSLNPLCFECGQQHWTRENHLYNYQNEVDDDLVCHICLQPLLQPLDTPCGHTFCYKCLRNFLQEKDFCPLDRKRLHFKLCKKSSILVHKLLDKLLVLCPFSSVCKDVMQRCDLEAHLKNRCPGASHRRVALERRKTSRTQAEIENENGPTLLDPAGTLSPEADCLGTGAVPVERHLTSASLSTWSEEPGLDNPAFEESAGADTTQQPLSLPEGEITTIEIHRSNPYIQLGISIVGGNETPLINIVIQEVYRDGVIARDGRLLAGDQILQVNNYNISNVSHNYARAVLSQPCNTLHLTVLRERRFGNRAHNHSDSNSPREEIFQVALHKRDSGEQLGIKLVRRTDEPGVFILDLLEGGLAAQDGRLSSNDRVLAINGHDLKYGTPELAAQIIQASGERVNLTIARPGKPQPGNTIREAGNHSSSSQHHTPPPYYSRPSSHKDLTQCVTCQEKHITVKKEPHESLGMTVAGGRGSKSGELPIFVTSVPPHGCLARDGRIKRGDVLLNINGIDLTNLSHSEAVAMLKASAASPAVALKALEVQIVEEATQNAEEQPSTFSENEYDASWSPSWVMWLGLPSTLHSCHDIVLRRSYLGSWGFSIVGGYEENHTNQPFFIKTIVLGTPAYYDGRLKCGDMIVAVNGLSTVGMSHSALVPMLKEQRNKVTLTVICWPGSLV
B2: Keratin-associated protein 5-9 (Homo sapiens), P26371 (parent)
chain: MGCCGCSGGCGSSCGGCDSSCGSCGSGCRGCGPSCCAPVYCCKPVCCCVPACSCSSCGKRGCGSCGGSKGGCGSCGCSQCSCCKPCCCSSGCGSSCCQCSCCKPYCSQCSCCKPCCSSSGRGSSCCQSSCCKPCCSSSGCGSSCCQSSCCKPCCSQSRCCVPVCYQCKI
partner: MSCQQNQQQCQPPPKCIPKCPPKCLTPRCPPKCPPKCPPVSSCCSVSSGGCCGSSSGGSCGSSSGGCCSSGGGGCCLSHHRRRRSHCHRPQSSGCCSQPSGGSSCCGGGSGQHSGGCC
B3: Melanoma-associated antigen 4 (Homo sapiens), P43358 (parent)
chain: MSSEQKSQHCKPEEGVEAQEEALGLVGAQAPTTEEQEAAVSSSSPLVPGTLEEVPAAESAGPPQSPQGASALPTTISFTCWRQPNEGSSSQEEEGPSTSPDAESLFREALSNKVDELAHFLLRKYRAKELVTKAEMLERVIKNYKRCFPVIFGKASESLKMIFGIDVKEVDPASNTYTLVTCLGLSYDGLLGNNQIFPKTGLLIIVLGTIAMEGDSASEEEIWEELGVMGVYDGREHTVYGEPRKLLTQDWVQENYLEYRQVPGSNPARYEFLWGPRALAETSYVKVLEHVVRVNARVRIAYPSLREAALLEEEEGV
partner: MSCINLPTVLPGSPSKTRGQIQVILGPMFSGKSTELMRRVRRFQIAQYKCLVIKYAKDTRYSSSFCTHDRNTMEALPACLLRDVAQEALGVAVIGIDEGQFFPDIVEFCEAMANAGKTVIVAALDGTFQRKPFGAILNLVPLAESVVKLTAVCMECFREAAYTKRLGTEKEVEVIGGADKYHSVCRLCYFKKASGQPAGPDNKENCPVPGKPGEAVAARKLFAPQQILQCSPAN
B4: PiggyBac transposable element-derived protein 1 (Homo sapiens), Q96JS3 (parent)
chain: MYEALPGPAPENEDGLVKVKEEDPTWEQVCNSQEGSSHTQEICRLRFRHFCYQEAHGPQEALAQLRELCHQWLRPEMHTKEQIMELLVLEQFLTILPKELQPCVKTYPLESGEEAVTVLENLETGSGDTGQQASVYIQGQDMHPMVAEYQGVSLECQSLQLLPGITTLKCEPPQRPQGNPQEVSGPVPHGSAHLQEKNPRDKAVVPVFNPVRSQTLVKTEEETAQAVAAEKWSHLSLTRRNLCGNSAQETVMSLSPMTEEIVTKDRLFKAKQETSEEMEQSGEASGKPNRECAPQIPCSTPIATERTVAHLNTLKDRHPGDLWARMHISSLEYAAGDITRKGRKKDKARVSELLQGLSFSGDSDVEKDNEPEIQPAQKKLKVSCFPEKSWTKRDIKPNFPSWSALDSGLLNLKSEKLNPVELFELFFDDETFNLIVNETNNYASQKNVSLEVTVQEMRCVFGVLLLSGFMRHPRREMYWEVSDTDQNLVRDAIRRDRFELIFSNLHFADNGHLDQKDKFTKLRPLIKQMNKNFLLYAPLEEYYCFDKSMCECFDSDQFLNGKPIRIGYKIWCGTTTQGYLVWFEPYQEESTMKVDEDPDLGLGGNLVMNFADVLLERGQYPYHLCFDSFFTSVKLLSALKKKGVRATGTIRENRTEKCPLMNVEHMKKMKRGYFDFRIEENNEIILCRWYGDGIISLCSNAVGIEPVNEVSCCDADNEEIPQISQPSIVKVYDECKEGVAKMDQIISKYRVRIRSKKWYSILVSYMIDVAMNNAWQLHRACNPGASLDPLDFRRFVAHFYLEHNAHLSD

Variants of: B1
Conditions: with tbb5_human TUBB

| Variant | effect of a mutation on the interaction |
| --- | --- |
| T183I | with no effect |

Variants of: B1
Conditions: with mk09_human MAPK9, P45984

| Variant | effect of a mutation on the interaction |
| --- | --- |
| T183I | with no effect |

Variants of: B1
Conditions: with at2l2_human PHYKPL

| Variant | effect of a mutation on the interaction |
| --- | --- |
| T183I | with no effect |

Variants of: B1
Conditions: with ip6k2_human IP6K2, Q9UHH9

| Variant | effect of a mutation on the interaction |
| --- | --- |
| T183I | with no effect |

Variants of: B1
Conditions: with optn_human OPTN

| Variant | effect of a mutation on the interaction |
| --- | --- |
| T183I | with no effect |

Variants of: B1
Conditions: with lrc8e_human LRRC8E

| Variant | effect of a mutation on the interaction |
| --- | --- |
| S198P | with no effect |

Variants of: B1
Conditions: with atpb_human ATP5F1B

| Variant | effect of a mutation on the interaction |
| --- | --- |
| S198P | with no effect |

Variants of: B1
Conditions: with ptcd3_human PTCD3, Q96EY7

| Variant | effect of a mutation on the interaction |
| --- | --- |
| S198P | with no effect |

Variants of: B2
Conditions: with lce1b_human LCE1B

| Variant | effect of a mutation on the interaction |
| --- | --- |
| Y40C | with no effect |

Variants of: B3
Conditions: with kith_human TK1, P04183

| Variant | effect of a mutation on the interaction |
| --- | --- |
| S41F | with no effect |

Variants of: B4
Conditions: with traf2_human TRAF2, Q12933

| Variant | effect of a mutation on the interaction |
| --- | --- |
| N398S | with no effect |
| P256L | with no effect |
| I678V | with no effect |
| G244E | disrupting interaction strength |
| Q248E | disrupting interaction strength |

Variants of: B4
Conditions: with zsc22_human ZSCAN22, P10073

| Variant | effect of a mutation on the interaction |
| --- | --- |
| N398S | with no effect |
| P256L | disrupting interaction strength |
| I678V | with no effect |
| G244E | with no effect |
| Q248E | with no effect |

Variants of: B4
Conditions: with zn446_human ZNF446, Q9NWS9

| Variant | effect of a mutation on the interaction |
| --- | --- |
| N398S | with no effect |
| P256L | disrupting interaction strength |
| I678V | with no effect |
| G244E | with no effect |
| Q248E | with no effect |

Variants of: B4
Conditions: with znf24_human ZNF24, P17028

| Variant | effect of a mutation on the interaction |
| --- | --- |
| T25A | with no effect |
| I678V | with no effect |
